Test results from US20160297884A1 (Pfizer, published 2016).
Changes are numbered by the printed parent chain.

T1: Human BCMA (human, UniProt Q02223 1-54, limits assumed)
T1 construct: Soluble analyte in SPR; construct not described; also called huBCMA; B-cell maturation antigen
T1 sequence (looked up): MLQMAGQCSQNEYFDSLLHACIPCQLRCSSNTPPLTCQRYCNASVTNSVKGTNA

B1: L3.PY/P6E01 (antibody, V domains shown)
VH: EVQLLESGGGLVQPGGSLRLSCAASGFTFGSYAMTWVRQAPGKGLEWVSAISGSGGNTFYADSVKGRFTISRDNSKNTLYLQMNSLRAEDTAVYYCARVSPIASGMDYWGQGTLVTVSS
VL: EIVLTQSPGTLSLSPGERATLSCRASQSVSSSYLAWYQQKPGQAPRLLIYGASSRATGIPDRFSGSGSGTDFTLTISRLEPEDFAVYYCQHYPYPPSFTFGQGTKVEIK
notes: IgG
B2: L3.PY/H3.TAQ (antibody, V domains shown)
VH: B1 VH with A97T, S104A, G105Q
VL: B1 VL
notes: Tested as IgG
B3: L3.PY/L1.PS/H2.QR (antibody, V domains shown)
VH: B1 VH with S63Q, V64R
VL: B1 VL with L34P, A35S
notes: IgG
B4: A02_Rd4_6nM_C01 (antibody, V domains shown)
VH: EVQLLESGGGLVQPGGSLRLSCAASGFTFSSYAMNWVRQAPGKGLEWVSAITASGGSTYYADSVKGRFTISRDNSKNTLYLQMNSLRAEDTAVYYCARYWPMSLWGQGTLVTVSS
VL: EIVLTQSPGTLSLSPGERATLSCRASQSVSAYYLAWYQQKPGQAPRLLMYDASIRATGIPDRFSGSGSGTDFTLTISRLEPEDFAVYYCQQYERWPLTFGQGTKVEIK
B5: COMBO_Rd4_0.6nM_C29 (antibody, V domains shown)
VH: B4 VH with A33P, N35S, T52G, A53G, T58L, Y59P, S103D, L104I
VL: B4 VL with A31S, Y32S, E93Q, R94S
notes: Tested as IgG
B6: A02_Rd4_6nM_C16 (antibody, V domains shown)
VH: B4 VH with T52S, A53D, S54F, S103D, L104I
VL: B4 VL with A31D, Y32L, E93Q, R94T
notes: Tested as IgG; also called P5AC16

What was measured:
[1] = target: T1, Human BCMA; test: SPR, IgG immobilised, 25 C
Experimental: (§1) All experiments were performed on a Bio-Rad Proteon XPR36 surface Plasmon resonance biosensor (Bio-Rad, Hercules, Calif.). […] The analysis temperature for the immobilization was 25° C. and the running buffer was HBS-T+(10 mM HEPES, 150 mM NaCl, 0.05% Tween-20, pH 7.4). Channels were activated in the analyte (horizontal) direction by injecting a mixture of 1 mM ECD and 0.25 mM NHS for 3 minutes at a flow rate of 30 μL/min. IgGs were immobilized on the activated spots by injecting them in the ligand (vertical) direction at 20 μg/mL in 10 mM Acetate pH 4.5 buffer for 1.5 minutes at […]. The activated surfaces were blocked by injecting 1M ethanolamine, pH 8.5 in the analyte direction for 3 minutes at 30 μL/min.
(§2) The analysis temperature for the BCMA binding analysis was 37° C. or 25° C. in a running buffer of HBS-T+, supplemented with 1 mg/mL BSA. A kinetic titration method was employed for the interaction analysis as described in Abdiche, et al. Human BCMA (huBCMA) or cynomolgus monkey BCMA (cyBCMA) analyte was injected in the analyte direction using a series of injections from low to high concentration. The concentrations used were 0.08 nM, 0.4 nM, 2 nM, 10 nM and 50 nM (a 5-membered series, with a 5-fold dilution factor and top concentration of 50 nM). The association time for a given analyte dilution was two minutes. Immediately after the 50 nM BCMA injection, dissociation was monitored for 2 hours.
(§3) The sensorgrams were double-referenced and fit to a 1:1 Langmuir with mass transport kinetic titration model in BIAevaluation Software version 4.1.1 (GE Lifesciences, Piscataway, N.J.).

[2] = target: T2, cynomolgus monkey BCMA (cynomolgus monkey, UniProt A0A2K5UD97 1-53); test: SPR, IgG immobilised, 25 C
T2 construct: Soluble analyte in SPR; construct not described; also called cyBCMA; Cyno BCMA
Experimental: as §1, §2, §3

[3] = target: T1, Human BCMA; test: SPR, IgG immobilised, 37 C
In short: (§4)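 IgG amine-coupled to the chip; human or cynomolgus BCMA analyte injected by kinetic titration at 0.08–50 nM (2 min each), 2 h dissociation, in HBS-T+ with 1 mg/mL BSA, pH 7.4, at 37° C or 25° C. Double-referenced sensorgrams fit to 1:1 Langmuir with mass transport.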

[4] = target: T2, cynomolgus monkey BCMA; test: SPR, IgG immobilised, 37 C
In short: as §4

[5] = target: BCMA (analyte of Table 4A); test: SPR (Bio-Rad ProteOn XPR36), IgG amine-coupled, BCMA as analyte, kinetic titration; species of BCMA and temperature not stated for Table 4A
Experimental: as §1, §2, §3

[6] = target: T1, Human BCMA; test: SPR, IgG immobilised, 37 C; huBCMA @25° C.

Chain of BCMA (analyte of Table 4A) (Q02223 whole entry): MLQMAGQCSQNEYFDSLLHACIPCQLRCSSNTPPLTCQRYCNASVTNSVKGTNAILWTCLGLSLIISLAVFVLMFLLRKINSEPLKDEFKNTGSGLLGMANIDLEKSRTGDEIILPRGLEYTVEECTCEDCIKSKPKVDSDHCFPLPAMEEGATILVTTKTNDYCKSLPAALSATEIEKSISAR
T2 sequence (A0A2K5UD97 entry or part of it): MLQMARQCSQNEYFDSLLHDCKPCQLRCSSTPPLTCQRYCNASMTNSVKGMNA

| Binder | Kd [3] | T ½ [3] | kon [3] | Kd [4] | T ½ [4] | koff [4] | kon [4] | Kd [5] | koff [5] | kon [5] | t1/2 [5] | also measured |
| --- | --- | --- | --- | --- | --- | --- | --- | --- | --- | --- | --- | --- |
| B1 | 0.74 nM | 5.91 min | 2.65e+06 M⁻¹ s⁻¹ | 5.96 nM | 0.88 min | 0.0131 s⁻¹ | 2.2e+06 M⁻¹ s⁻¹ |  |  |  |  | Kd [1]: 0.32 nM; T ½ [1]: 50.7 min; koff [1]: 0.000228 s⁻¹; kon [1]: 712000 M⁻¹ s⁻¹; Kd [2]: 3.4 nM; T ½ [2]: 3.9 min; koff [2]: 0.00293 s⁻¹; kon [2]: 855000 M⁻¹ s⁻¹; koff [3]: 0.00196 s⁻¹ |
| B2 |  |  |  |  |  |  |  | 0.053 nM | 0.00014 s⁻¹ | 2.6e+06 M⁻¹ s⁻¹ | 84 min |  |
| B3 | 25.9 nM | 0.11 min | 3.97e+06 M⁻¹ s⁻¹ | 1.28 nM | 17.2 min | 0.00067 s⁻¹ | 525000 M⁻¹ s⁻¹ |  |  |  |  | koff [6]: 0.103 s⁻¹ |
| B4 |  |  |  |  |  |  |  | 0.024 nM | 2.8e-05 s⁻¹ | 1.2e+06 M⁻¹ s⁻¹ | 411 min |  |
| B5 |  |  |  |  |  |  |  | 0.021 nM | 0.00014 s⁻¹ | 6.6e+06 M⁻¹ s⁻¹ | 83 min |  |
| B6 |  |  |  |  |  |  |  | 0.059 nM | 6.2e-05 s⁻¹ | 1.1e+06 M⁻¹ s⁻¹ | 187 min |  |
